Reference: the RNAGym collection of RNA variant scans (doi:10.7554/elife.90254)

B1: OR4K15 (parent)
chain: GUUAACGGUCAUAGGCCAUGGAAACUAGGAGCACCAUUUCGCUGCCAGUGAAGAAAUGAACAAAGAAAAUCUGGGCCAGGCAGGCAUCAAAAGAAAUAGUCUUGCGCUCAACCAGAAAGUCUGUAAUCAUUUUAAGGGUA

Variants of: B1
Test: self-cleavage, relative activity (ratio to wild type); higher = more cleavage; in vitro, sequencing; the parent is a self-cleaving ribozyme

Variant	self-cleavage
GUUAACGGUCAUAGGCCAUGGAAACUAGGAGCACCAUUUCGCUGCCAGUGAAGAAAUGAACAAAGAAAAUCUGGGCCAGGCAGGCAUCAAAAGAAAUAGUCUUGCGCUCAGCCAGAAAGUCUGUAAUCAUUUUAAGGGUA [A111G]	0.02
GUUAACGGUCAUAGGCCAUGGAAACUAGGAGCACCAUUUCGCUGCCAGUGAAGAAAUGAACAAAGAAAAUCUGGGCCAGGCAGGCAUCAAAAGAAAUAGUCUUGCGCUCACCCAGAAAGUCUGUAAUCAUUUUAAGGGUA [A111C]	0.01
GUUAACGGUCAUAGGCCAUGGAAACUAGGAGCACCAUUUCGCUGCCAGUGAAGAAAUGAACAAAGAAAAUCUGGGCCAGGCAGGCAUCAAAAGAAAUAGUCUUGCGCUCAGCCAGAAAGUCUGUAAUCGUUUUAAGGGUA [A111G A129G]	0.01
GUUAACGGUCAUAGGCCAUGGAAACUAGGAGCACCAUUUCGCUGCCAGUGAAGAAAUGAACAAAGAAAAUCUGGGCCAGGCAGGCAUCAAAAGAAAUAGUCUUGCGCUCUACCAGACAGUCUGUAAUCAUUUUAAGGGUA [A110U A117C]	0.29
GUUAACGGUCAUAGGCCAUGGAAACUAGGAGCACCAUUUCGCUGCCAGUGAAGAAAUGAACAAAGAAAAUCUGGGCCAGGCAGGCAUCAAAAGAAAUAGUCUUGCGCUCGACCAGAAAGUCUGUAAACAUUUUAAGGGUA [A110G U127A]	0.15
GUUAACGGUCAUAGGCCAUGGAAACUAGGAGCACCAUUUCGCUGCCAGUGAAGAAAUGAACAAAGAAAAUCUGGGCCAGGCAGGCAUCAAAAGAAAUAGUCUUGCGCUCUACCAGAAAGUCUGUAGUCAUUUUAAGGGUA [A110U A126G]	1.05
GUUAACGGUCAUAGGCCAUGGAAACUAGGAGCACCAUUUCGCUGCCAGUGAAGAAAUGAACAAAGAAAAUCUGGGCCAGGCAGGCAUCAAAAGAAAUAGUCUUGCGCUCUGCCAGAAAGUCUGUAAUCAUUUUAAGGGUA [A110U A111G]	0.01
GUUAACGGUCAUAGGCCAUGGAAACUAGGAGCACCAUUUCGCUGCCAGUGAAGAAAUGAACAAAGAAAAUCUGGGCCAGGCAGGCAUCAAAAGAAAUAGUCUUGCGCUCGACCAGAAAGUCUGUAAUCAUUUCAAGGGUA [A110G U133C]	0.25
GUUAACGGUCAUAGGCCAUGGAAACUAGGAGCACCAUUUCGCUGCCAGUGAAGAAAUGAACAAAGAAAAUCUGGGCCAGGCAGGCAUCAAAAGAAAUAGUCUUGCGCUCUACCAGAAAGUCUGUAAUCAUUCUAAGGGUA [A110U U132C]	0.71
GUUAACGGUCAUAGGCCAUGGAAACUAGGAGCACCAUUUCGCUGCCAGUGAAGAAAUGAACAAAGAAAAUCUGGGCCAGGCAGGCAUCAAAAGAAAUAGUCUUGCGCUCUACCAGAAAGUCUGUAAUCAUUAUAAGGGUA [A110U U132A]	1.8
GUUAACGGUCAUAGGCCAUGGAAACUAGGAGCACCAUUUCGCUGCCAGUGAAGAAAUGAACAAAGAAAAUCUGGGCCAGGCAGGCAUCAAAAGAAAUAGUCUUGCGCUCUACCAGAAAGUCUGUAAUCAUUUUAAGGGUA [A110U]	1.34
GUUAACGGUCAUAGGCCAUGGAAACUAGGAGCACCAUUUCGCUGCCAGUGAAGAAAUGAACAAAGAAAAUCUGGGCCAGGCAGGCAUCAAAAGAAAUAGUCUUGCGCUCAGCCAGAAAGUAUGUAAUCAUUUUAAGGGUA [A111G C121A]	0.03
GUUAACGGUCAUAGGCCAUGGAAACUAGGAGCACCAUUUCGCUGCCAGUGAAGAAAUGAACAAAGAAAAUCUGGGCCAGGCAGGCAUCAAAAGAAAUAGUCUUGCGCUCAGCCAGAAAGUCUGUGAUCAUUUUAAGGGUA [A111G A125G]	0.01
GUUAACGGUCAUAGGCCAUGGAAACUAGGAGCACCAUUUCGCUGCCAGUGAAGAAAUGAACAAAGAAAAUCUGGGCCAGGCAGGCAUCAAAAGAAAUAGUCUUGCGCUCAGCCGGAAAGUCUGUAAUCAUUUUAAGGGUA [A111G A114G]	0.02
GUUAACGGUCAUAGGCCAUGGAAACUAGGAGCACCAUUUCGCUGCCAGUGAAGAAAUGAACAAAGAAAAUCUGGGCCAGGCAGGCAUCAAAAGAAAUAGUCUUGCGCUCAGCCCGAAAGUCUGUAAUCAUUUUAAGGGUA [A111G A114C]	0
GUUAACGGUCAUAGGCCAUGGAAACUAGGAGCACCAUUUCGCUGCCAGUGAAGAAAUGAACAAAGAAAAUCUGGGCCAGGCAGGCAUCAAAAGAAAUAGUCUUGCGCUCAGCCUGAAAGUCUGUAAUCAUUUUAAGGGUA [A111G A114U]	0
GUUAACGGUCAUAGGCCAUGGAAACUAGGAGCACCAUUUCGCUGCCAGUGAAGAAAUGAACAAAGAAAAUCUGGGCCAGGCAGGCAUCAAAAGAAAUAGUCUUGCGCUCAGCCAGAAAGUCUGUAAUCAUUUUAAGAGUA [A111G G137A]	0.02
GUUAACGGUCAUAGGCCAUGGAAACUAGGAGCACCAUUUCGCUGCCAGUGAAGAAAUGAACAAAGAAAAUCUGGGCCAGGCAGGCAUCAAAAGAAAUAGUCUUGCGCUCAGCCAGAAAGACUGUAAUCAUUUUAAGGGUA [A111G U120A]	0
GUUAACGGUCAUAGGCCAUGGAAACUAGGAGCACCAUUUCGCUGCCAGUGAAGAAAUGAACAAAGAAAAUCUGGGCCAGGCAGGCAUCAAAAGAAAUAGUCUUGCGCUCAGCCAGAAAGUCUGUAAUAAUUUUAAGGGUA [A111G C128A]	0.01
GUUAACGGUCAUAGGCCAUGGAAACUAGGAGCACCAUUUCGCUGCCAGUGAAGAAAUGAACAAAGAAAAUCUGGGCCAGGCAGGCAUCAAAAGAAAUAGUCUUGCGCUCAGCCAGAAAGUCGGUAAUCAUUUUAAGGGUA [A111G U122G]	0.01
GUUAACGGUCAUAGGCCAUGGAAACUAGGAGCACCAUUUCGCUGCCAGUGAAGAAAUGAACAAAGAAAAUCUGGGCCAGGCAGGCAUCAAAAGAAAUAGUCUUGCGCUCAGCCAGAAAGUCAGUAAUCAUUUUAAGGGUA [A111G U122A]	0.01

Variant	self-cleavage
GUUAACGGUCAUAGGCCAUGGAAACUAGGAGCACCAUUUCGCUGCCAGUGAAGAAAUGAACAAAGAAAAUCUGGGCCAGGCAGGCAUCAAAAGAAAUAGUCUUGCGCUCAGCCAGAAGGUCUGUAAUCAUUUUAAGGGUA [A111G A118G]	0.01
GUUAACGGUCAUAGGCCAUGGAAACUAGGAGCACCAUUUCGCUGCCAGUGAAGAAAUGAACAAAGAAAAUCUGGGCCAGGCAGGCAUCAAAAGAAAUAGUCUUGCGCUCAGCCAGAAUGUCUGUAAUCAUUUUAAGGGUA [A111G A118U]	0
GUUAACGGUCAUAGGCCAUGGAAACUAGGAGCACCAUUUCGCUGCCAGUGAAGAAAUGAACAAAGAAAAUCUGGGCCAGGCAGGCAUCAAAAGAAAUAGUCUUGCGCUCAGCCAGAAAGUCUGUAGUCAUUUUAAGGGUA [A111G A126G]	0.01
GUUAACGGUCAUAGGCCAUGGAAACUAGGAGCACCAUUUCGCUGCCAGUGAAGAAAUGAACAAAGAAAAUCUGGGCCAGGCAGGCAUCAAAAGAAAUAGUCUUGCGCUCAGCCAGAGAGUCUGUAAUCAUUUUAAGGGUA [A111G A117G]	0.01
GUUAACGGUCAUAGGCCAUGGAAACUAGGAGCACCAUUUCGCUGCCAGUGAAGAAAUGAACAAAGAAAAUCUGGGCCAGGCAGGCAUCAAAAGAAAUAGUCUUGCGCUCGACCAGAAAGUCAGUAAUCAUUUUAAGGGUA [A110G U122A]	0.11
GUUAACGGUCAUAGGCCAUGGAAACUAGGAGCACCAUUUCGCUGCCAGUGAAGAAAUGAACAAAGAAAAUCUGGGCCAGGCAGGCAUCAAAAGAAAUAGUCUUGCGCUCGACCAGAAAGUCCGUAAUCAUUUUAAGGGUA [A110G U122C]	0.09
GUUAACGGUCAUAGGCCAUGGAAACUAGGAGCACCAUUUCGCUGCCAGUGAAGAAAUGAACAAAGAAAAUCUGGGCCAGGCAGGCAUCAAAAGAAAUAGUCUUGCGCUCGACCAGAAAGUCGGUAAUCAUUUUAAGGGUA [A110G U122G]	0.26
GUUAACGGUCAUAGGCCAUGGAAACUAGGAGCACCAUUUCGCUGCCAGUGAAGAAAUGAACAAAGAAAAUCUGGGCCAGGCAGGCAUCAAAAGAAAUAGUCUUGCGCUCGACCAGAAAGUCUGUAAUCAUUCUAAGGGUA [A110G U132C]	0.07
GUUAACGGUCAUAGGCCAUGGAAACUAGGAGCACCAUUUCGCUGCCAGUGAAGAAAUGAACAAAGAAAAUCUGGGCCAGGCAGGCAUCAAAAGAAAUAGUCUUGCGCUCAGCCAGUAAGUCUGUAAUCAUUUUAAGGGUA [A111G A116U]	0.04
GUUAACGGUCAUAGGCCAUGGAAACUAGGAGCACCAUUUCGCUGCCAGUGAAGAAAUGAACAAAGAAAAUCUGGGCCAGGCAGGCAUCAAAAGAAAUAGUCUUGCGCUCAGCCAGGAAGUCUGUAAUCAUUUUAAGGGUA [A111G A116G]	0.01
GUUAACGGUCAUAGGCCAUGGAAACUAGGAGCACCAUUUCGCUGCCAGUGAAGAAAUGAACAAAGAAAAUCUGGGCCAGGCAGGCAUCAAAAGAAAUAGUCUUGCGCUCGACCAGAAAGUCUGUAAUCAUCUUAAGGGUA [A110G U131C]	0.08
GUUAACGGUCAUAGGCCAUGGAAACUAGGAGCACCAUUUCGCUGCCAGUGAAGAAAUGAACAAAGAAAAUCUGGGCCAGGCAGGCAUCAAAAGAAAUAGUCUUGCGCUCUACCAGAAAGUCUGUAACCAUUUUAAGGGUA [A110U U127C]	0.44
GUUAACGGUCAUAGGCCAUGGAAACUAGGAGCACCAUUUCGCUGCCAGUGAAGAAAUGAACAAAGAAAAUCUGGGCCAGGCAGGCAUCAAAAGAAAUAGUCUUGCGCUCAGCCAGAAAGUCUGUAAUCAAUUUAAGGGUA [A111G U130A]	0.02
GUUAACGGUCAUAGGCCAUGGAAACUAGGAGCACCAUUUCGCUGCCAGUGAAGAAAUGAACAAAGAAAAUCUGGGCCAGGCAGGCAUCAAAAGAAAUAGUCUUGCGCUCACCCAGAAAGUCUGUAAUCAUCUUAAGGGUA [A111C U131C]	0
GUUAACGGUCAUAGGCCAUGGAAACUAGGAGCACCAUUUCGCUGCCAGUGAAGAAAUGAACAAAGAAAAUCUGGGCCAGGCAGGCAUCAAAAGAAAUAGUCUUGCGCUCAGCCAGAAAGUCUGUAAUCAUUUUGAGGGUA [A111G A134G]	0.01
GUUAACGGUCAUAGGCCAUGGAAACUAGGAGCACCAUUUCGCUGCCAGUGAAGAAAUGAACAAAGAAAAUCUGGGCCAGGCAGGCAUCAAAAGAAAUAGUCUUGCGCUCAGCCAGAAAGUCUGUAAUCAUUUUUAGGGUA [A111G A134U]	0.02
GUUAACGGUCAUAGGCCAUGGAAACUAGGAGCACCAUUUCGCUGCCAGUGAAGAAAUGAACAAAGAAAAUCUGGGCCAGGCAGGCAUCAAAAGAAAUAGUCUUGCGCUCAGCCAGAAAGUCUGAAAUCAUUUUAAGGGUA [A111G U124A]	0.02
GUUAACGGUCAUAGGCCAUGGAAACUAGGAGCACCAUUUCGCUGCCAGUGAAGAAAUGAACAAAGAAAAUCUGGGCCAGGCAGGCAUCAAAAGAAAUAGUCUUGCGCUCGACCAGAAAGCCUGUAAUCAUUUUAAGGGUA [A110G U120C]	0.06
GUUAACGGUCAUAGGCCAUGGAAACUAGGAGCACCAUUUCGCUGCCAGUGAAGAAAUGAACAAAGAAAAUCUGGGCCAGGCAGGCAUCAAAAGAAAUAGUCUUGCGCUCGACCAGAAAGUCUGUAAUCAUUUUAAGGGAA [A110G U139A]	0.05
GUUAACGGUCAUAGGCCAUGGAAACUAGGAGCACCAUUUCGCUGCCAGUGAAGAAAUGAACAAAGAAAAUCUGGGCCAGGCAGGCAUCAAAAGAAAUAGUCUUGCGCUCGACCAGAAAGUCUGUAAUCACUUUAAGGGUA [A110G U130C]	0.09
